Measurements from patent US20240287165A1 (GENERAL HOSPITAL, published 2024).
Like-named read-outs stand apart in the source and are kept apart here.

What was measured:
[1] = target: ApoEch peptide KLH-…-CONH2 (human); experiment: ELISA, negative control
[2] = target: full-length ApoE3ch (ApoE3 Christchurch R136S) mutant recombinant protein (His-tagged) (human) (UniProt P02649); experiment: ELISA, negative control
[3] = target: full-length wild type human ApoE3 recombinant protein (His-tagged) (human) (UniProt P02649); experiment: ELISA, negative control
[4] = target: wild type ApoE peptide KLH-…-CONH2 (human); experiment: ELISA, negative control
[5] = target: T1, bovine serum albumin (BSA) (bovine, UniProt P02769 25-607); experiment: ELISA, BSA as control coat, antibody diluted 1:1000 to 1:32000, absorbance 450 nm; x axis counts the dilution factor
T1 sequence (P02769 25-607 limits assumed): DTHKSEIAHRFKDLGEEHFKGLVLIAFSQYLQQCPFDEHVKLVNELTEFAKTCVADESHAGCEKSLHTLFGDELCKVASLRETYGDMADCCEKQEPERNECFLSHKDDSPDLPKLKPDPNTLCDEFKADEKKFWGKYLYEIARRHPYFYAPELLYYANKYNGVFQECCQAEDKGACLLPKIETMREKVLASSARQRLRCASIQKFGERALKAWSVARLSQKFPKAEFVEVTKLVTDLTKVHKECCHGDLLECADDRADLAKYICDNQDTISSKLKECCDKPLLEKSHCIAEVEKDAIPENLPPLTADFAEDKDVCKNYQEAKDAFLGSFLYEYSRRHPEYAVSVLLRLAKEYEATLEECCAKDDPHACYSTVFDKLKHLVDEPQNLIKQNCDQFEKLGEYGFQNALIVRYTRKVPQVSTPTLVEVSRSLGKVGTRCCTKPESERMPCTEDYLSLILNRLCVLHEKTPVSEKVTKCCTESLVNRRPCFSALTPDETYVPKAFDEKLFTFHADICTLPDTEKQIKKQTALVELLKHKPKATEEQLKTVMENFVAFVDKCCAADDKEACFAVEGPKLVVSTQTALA

[6] = target: T1, bovine serum albumin (BSA); experiment: as above; remark: listed apart in the source
Protocol: ELISA: Antibodies designed against the heparin-binding domain of ApoE were tested for their affinity to ApoE3 and ApoEch mutant recombinant proteins using ELISA. The Ni-NTA HisSorb Plates (Qiagen) were washed 3 times with wash buffer 1 (DY008). The ApoE recombinant proteins were suspended in buffer (DY008) to give a final concentration of 0.5 μg/ml. The plates were incubated with 200 μl of ApoE recombinant proteins for 2 hours, and washed 5 times with 1x wash buffer (DY008). The plates were then incubated with antibodies at a serial dilution of from 1:1,000 to 1:32,000 for overnight at 4° C. The plate was then washed 5 times in 1X wash buffer (DY008), and incubated with anti-mouse HRP (Abcam; ab97046, 1:10,000) for 45 minutes, followed by 5 washes in 1x wash buffer to ensure complete removal of unbound secondary antibody. The sulfuric acid from the ELISA reagent kit (DY008) was warmed to 37° C. […] The plate was then read using Synery 2 microplate reader (BioTek Instrument. Inc) and the Gen5 version1.11 software).
To generate monoclonal antibodies against the heparin-binding domain of ApoE, mice were immunized using the wild type ApoE peptide: KLH-[…]-CONH₂ (SEQ ID NO:54), and the ApoEch peptide: KLH-[…]-CONH₂ (SEQ ID NO:55). […] Seven antibodies generated were analyzed by ELISA as examples, as described in the materials and methods section.

[7] = target: T2, C-terminal wild type ApoE3 recombinant protein (human, UniProt P02649 143-317, limits assumed); experiment: ELISA, His-tagged ApoE protein on Ni-NTA plate, antibody diluted 1:1000 to 1:32000, absorbance 450 nm against dilution factor
T2 construct: also called C-terminal form of wild type ApoE3; c-terminus of the APOE3WT protein; not shown: histidine tag
Protocol: Antibodies designed against the heparin binding domain of APOE were tested for affinity to APOE3 and APOEch mutant recombinant protein using an ELISA. The Ni-NTA HisSorb Plates (Qiagen) plates were washed 3 times with wash buffer 1 (DY008), the APOE recombinant proteins were suspended in buffer (DY008) to give a final concentration of 0.5 μg/ml. The plates were incubated with 200 μl for 2 hours. The plate was then washed 5 times with 1x wash buffer (DY008), the plates were then incubated with antibodies in a serial dilution series from 1:1000 to 1:32000 and incubated overnight at 4° C. The plate is then washed 5 times in 1X wash buffer (DY008). The plates were then incubated with Anti-mouse HRP (Abcam; ab97046) (1:10000) for 45 minutes. The plate was then washed 5 times in 1x wash buffer to ensure complete removal of unbound secondary antibody. The Sulfuric acid from the ELISA reagent kit (DY008) was warmed to 37° C. prior to addition of 100 μl of tetramethylbenzidine (Millipore) initiating the detection phase of the reaction. […] The plate was then read using Synery 2 microplate reader (BioTek Instrument. Inc) and the Gen5 version1.11 software).
The 19G10-2 antibody was further evaluated using Heparin-Affinity chromatography, Western Blotting, Quantitative ELISA for chromatography fractions, and ELISA for binding analyses. […]

[8] = target: T3, ApoEch peptide KLH-CTEELRVSLASHLRK-CONH2 (human, not fully specified; C-terminal amide (CONH2); printed with KLH on the added N-terminal cysteine); experiment: ELISA of the monoclonal antibody purified from cloned hybridoma, O.D. 450 nm against antibody concentration (ng/mL, log axis)
T3 construct: also called Mut peptide; mutant ApoE peptide
T3 peptide: CTEELRVSLASHLRK

[9] = target: T4, full-length ApoE3ch (ApoE3 Christchurch R136S) mutant recombinant protein (His-tagged) (human, UniProt P02649 19-317); experiment: ELISA, His-tagged ApoE protein on Ni-NTA plate, antibody diluted 1:1000 to 1:32000, anti-mouse HRP, absorbance 450 nm; x axis (printed 'Antibody Concentation') counts the dilution factor
T4 construct: also called ApoE3ch full length protein; APOE3ch Mutant; not shown: histidine tag
Protocol: (§1) ELISA: Antibodies designed against the heparin-binding domain of ApoE were tested for their affinity to ApoE3 and ApoEch mutant recombinant proteins using ELISA. The Ni-NTA HisSorb Plates (Qiagen) were washed 3 times with wash buffer 1 (DY008). The ApoE recombinant proteins were suspended in buffer (DY008) to give a final concentration of 0.5 μg/ml. The plates were incubated with 200 μl of ApoE recombinant proteins for 2 hours, and washed 5 times with 1x wash buffer (DY008). The plates were then incubated with antibodies at a serial dilution of from 1:1,000 to 1:32,000 for overnight at 4° C. The plate was then washed 5 times in 1X wash buffer (DY008), and incubated with anti-mouse HRP (Abcam; ab97046, 1:10,000) for 45 minutes, followed by 5 washes in 1x wash buffer to ensure complete removal of unbound secondary antibody. The sulfuric acid from the ELISA reagent kit (DY008) was warmed to 37° C. 100 μl of tetramethylbenzidine (Millipore) was added to initiate the detection phase of the reaction. After a 5-min incubation, sulfuric acid was added to terminate the reaction. The plate was then read using Synery 2 microplate reader (BioTek Instrument. Inc) and the Gen5 version1.11 software).
(§2) To generate monoclonal antibodies against the heparin-binding domain of ApoE, mice were immunized using the wild type ApoE peptide: KLH-[…]-CONH₂ (SEQ ID NO:54), and the ApoEch peptide: KLH-[…]-CONH₂ (SEQ ID NO:55). A cysteine residue was added at the N-terminus to facilitate conjugation of the peptides. Cell fusions were obtained from positive clones and cell supernatants tested for activity against the wild type and mutant peptides and proteins. Seven antibodies generated were analyzed by ELISA as examples, as described in the materials and methods section.

[10] = target: T5, C-terminal domain ApoE3ch mutant recombinant protein (amino acids 125 to 299) (human, UniProt P02649 143-317); experiment: as above
T5 construct: also called C-terminal ApoE3ch mutant protein; APOE3 mutant c terminal protein; not shown: histidine tag
T5 chain: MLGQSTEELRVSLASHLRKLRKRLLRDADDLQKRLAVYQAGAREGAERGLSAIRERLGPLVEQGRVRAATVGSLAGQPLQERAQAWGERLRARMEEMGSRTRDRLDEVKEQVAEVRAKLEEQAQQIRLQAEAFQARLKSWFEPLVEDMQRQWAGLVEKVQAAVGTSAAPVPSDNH
Protocol: as §1, §2

[11] = target: T3, ApoEch peptide KLH-CTEELRVSLASHLRK-CONH2; experiment: ELISA of the monoclonal antibody purified from cloned hybridoma, O.D. 450 nm against antibody concentration (ng/mL, log axis)
[12] = target: T6, full-length wild type human ApoE3 recombinant protein (His-tagged) (human, UniProt P02649 19-317); experiment: ELISA, parental hybridoma clone
T6 construct: Recombinant protein from Innovagen; also called ApoE3 WT full-length protein; APOE3 WT; not shown: histidine tag

[13] = target: T4, full-length ApoE3ch (ApoE3 Christchurch …); experiment: ELISA, parental hybridoma clone
[14] = target: T7, wild type ApoE peptide KLH-CTEELRVRLASHLRK-CONH2 (human, not fully specified; C-terminal amide (CONH2); printed with KLH on the added N-terminal cysteine); experiment: ELISA, parental hybridoma clone
T7 construct: also called WT peptide; ApoE3 WT peptide
T7 peptide: CTEELRVRLASHLRK

[15] = target: T3, ApoEch peptide KLH-CTEELRVSLASHLRK-CONH2; experiment: ELISA, parental hybridoma clone
[16] = target: T4, full-length ApoE3ch (ApoE3 Christchurch …); experiment: ELISA subclones analysis, 7C11-1 serum on mutant protein, O.D. 450 nm against dilution factor

Q: Neg. ctrl (Table 6) was tested. Which absorbance (ELISA) [1] did it give?
A: 0.056 absorbance

Q: And the absorbance (ELISA) [2]?
A: 0.048 absorbance

Q: What about the absorbance (ELISA) [3] of the same molecule?
A: 0.051 absorbance

Q: And the absorbance (ELISA) [4]?
A: 0.068 absorbance

B1: mouse antibody 1343ab (antibody, mouse IgG1, kappa, V domains shown)
VH: EVQLQQSGAELVRPGALVKLSCKASGFNIKDYHLHWVKQRPEQGLEWIGWIDPENGNVIYDPKFQGKATMTVVTSSNTAYLQLRSLTSEDTAVYFCTRGTARASFDYWGQGTSLTVSS
VL: DIVLTQSPASLAVSLGQRATISCKASQSVDYDGENYMNWYQQKPGQSPKLLIYVASNLESGIPARFSGSGSGTDFTLNIHPVEEEDAATYYCQQSNLDPWTFGGGTKLEIKR
modifications: N-linked glycosylation detected on heavy chain constant region N at 292; loss of C-terminal lysine observed
notes: also called 23B2
Q: Does B1 bind [5]?
A: no binding (tested: 1:1000 dilution)

B2: antibody 19G10-2 (antibody, V domains shown)
VH: EVQLQQSGAELVRPGALVKLSCKASGFNIKDYHMHWVKERPEQGLEWIGWIDPENGNTMYDPKFQGKASITADTSSNTAYLQLSSLTSEDTAVYYCVRGTARASFDYWGQGTTLTVSS
VL: DIVLTQSPASLAVSLGQRATISCKASQSVDYDGDSYMNWYQQKSGQPPKLLIYAASNLESGIPARFSGSGSGTDFTLNIHPVEEEDAATYYCQQSNVDPWTFGGGTKLEIK
notes: Tested as serum, as hybridoma supernatant and as purified monoclonal; also called 19G10-2 antibody serum; monoclonal antibody hybridoma supernatant 19G10-2
Q: Does B2 bind [6]?
A: no binding (tested: 1:1000 dilution)

Q: Does B2 bind [7]?
A: no binding (tested: 1:1000 dilution)

Q: Does B2 bind [8]?
A: binds

Q: Does B2 bind [9]?
A: binds

Q: Does B2 bind [10]?
A: binds

B3: antibody 25F1-2 (antibody, V domains shown)
VH: EVQLQQSGAELVRPGALVKWSCKASGFNIKDYHIHWVKQRPEQGLDWIGWIDPEIDKTLYDPKFQGKARITADTSSNTAYLQLSSLTSEDTAVYYCARGTARASFDYWGQGTTLTVSS
VL: DIVLTQSPASLAVSLGQRATISCKASQSVDYDGDTYMNWYQQKPGQPPKLLIYTASNLESGIPARFSGSGSGTDFTLNIHPVEEVDAATYYCQQSNEDPWTFGGGTKLEIK
notes: also called 25F1-2 antibody serum; monoclonal antibody hybridoma supernatant 25F1-2
Q: Which results are given for B3?
A: binding result [6]: no binding (tested: 1:1000 dilution); binding result [11]: binds; binding result [9]: binds; binding result [10]: binds

B4: antibody 7C11-1 (antibody, V domains shown)
VH: EVKLVESGGGLVQPGGSLKLSCAASGFTFSRYTMSWVRQTPEKRLEWVAKIRNVGGITYYPDTVKGRFTISRDNAKNTLYLQMSSLKSEDTAMYYCARHYYGSEDYFDYWGQGTTLTVSS
VL: DNVLTQSPASLAVSLGQRATISCKASQSVDYDGDSYMNWYQQKPGQPPKVFIYAASNLESGIPARFSGSGSGTNFTLNIHPVEEEDAATYYCQQSNEDPWTFGGGTKLEIK
notes: The limits without signal peptide (20-139, 21-131) come from CLM-00005; also called 7C11-1 serum
Q: For B4, which “absorbance (ELISA)” value [12] is on record?
A: 0.689 absorbance

Q: And the “absorbance (ELISA)” value [13]?
A: 0.055 absorbance

Q: What about the “absorbance (ELISA)” value [14] of the same molecule?
A: 1.28 absorbance

Q: What about the “absorbance (ELISA)” value [15] of the same molecule?
A: 0.058 absorbance

Q: Does B4 bind [16]?
A: no binding (tested: 1:10 dilution)
